Reference: publication PMC7233811, “Small molecule inhibits T-cell acute lymphoblastic leukaemia oncogenic interaction through conformational modulation of LMO2” (Oncotarget, 2020)

Experiments:
[1] = target: SCL/E2A complex (Homo sapiens) (UniProt P17542); assay: given as Ka; conditions: cited from earlier work
[2] = target: T1, LMO2 (LIM only protein 2) (Homo sapiens, UniProt P25791); assay: microscale thermophoresis (NT647-labelled protein); supported by STD-NMR, SAXS and HTRF PPI inhibition (IC50 […]); format: binding
T1 construct: tandem LIM-domain construct of LMO2 fused to the LDB1^LID (FLINC2); with LDB1 LID (fused)
T1 sequence (P25791 30-153 limits assumed): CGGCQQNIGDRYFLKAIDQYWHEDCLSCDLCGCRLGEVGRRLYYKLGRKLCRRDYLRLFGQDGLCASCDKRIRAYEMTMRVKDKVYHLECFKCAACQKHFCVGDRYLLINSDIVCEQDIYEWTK
T1 sequence (Q86U70 336-375 partner limits assumed): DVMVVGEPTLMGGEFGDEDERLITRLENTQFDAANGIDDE

SCL/E2A complex (Homo sapiens), sequence (P17542 whole entry, chain 1 of 2): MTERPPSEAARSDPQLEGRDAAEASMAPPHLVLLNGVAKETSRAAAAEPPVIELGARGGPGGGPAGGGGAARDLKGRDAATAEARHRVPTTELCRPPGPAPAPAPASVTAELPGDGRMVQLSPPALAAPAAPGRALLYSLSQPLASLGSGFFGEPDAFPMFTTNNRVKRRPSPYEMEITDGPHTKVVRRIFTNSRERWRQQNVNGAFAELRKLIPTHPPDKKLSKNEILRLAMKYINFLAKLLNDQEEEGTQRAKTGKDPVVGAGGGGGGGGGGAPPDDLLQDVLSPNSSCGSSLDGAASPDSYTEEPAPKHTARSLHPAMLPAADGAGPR
SCL/E2A complex (Homo sapiens), sequence (P15923 whole entry, chain 2 of 2, further chain): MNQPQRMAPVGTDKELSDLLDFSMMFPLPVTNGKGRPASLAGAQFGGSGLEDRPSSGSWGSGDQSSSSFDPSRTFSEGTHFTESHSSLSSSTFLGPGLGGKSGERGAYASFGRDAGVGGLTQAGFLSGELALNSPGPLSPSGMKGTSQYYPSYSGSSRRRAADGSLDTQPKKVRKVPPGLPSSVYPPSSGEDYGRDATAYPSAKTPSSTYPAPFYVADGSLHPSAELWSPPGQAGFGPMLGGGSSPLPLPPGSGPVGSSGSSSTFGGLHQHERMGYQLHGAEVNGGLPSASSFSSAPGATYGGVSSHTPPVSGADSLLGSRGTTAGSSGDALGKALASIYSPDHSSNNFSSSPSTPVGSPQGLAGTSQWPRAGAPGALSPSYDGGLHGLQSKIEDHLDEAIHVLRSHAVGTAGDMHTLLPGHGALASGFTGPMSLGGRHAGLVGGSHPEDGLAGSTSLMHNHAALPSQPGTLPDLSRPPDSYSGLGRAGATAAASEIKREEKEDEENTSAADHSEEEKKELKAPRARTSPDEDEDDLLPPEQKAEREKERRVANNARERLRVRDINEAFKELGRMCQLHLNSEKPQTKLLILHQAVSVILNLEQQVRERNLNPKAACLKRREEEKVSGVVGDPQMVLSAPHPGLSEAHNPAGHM
LMO2, sequence (P25791 whole entry, the tested form may be a part): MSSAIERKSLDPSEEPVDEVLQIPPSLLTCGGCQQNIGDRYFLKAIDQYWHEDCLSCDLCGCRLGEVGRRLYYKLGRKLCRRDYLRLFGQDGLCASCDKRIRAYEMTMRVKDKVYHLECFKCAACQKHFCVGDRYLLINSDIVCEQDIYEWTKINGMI

Row | Kd [2] [nM] | Compound | Kd [1] [nM]
1 | – | LMO2 (from UniProt P25791) | 5.56
2 | 1200 | Cc1cc(C)cc(C2(C(=O)N3CCOCC(Cc4ccc5nccn5c4)C3)CCOCC2)c1 (centres unmarked) [3K7] | –
